# According to the nanobody polyreactivity screen of Harvey et al. (2022):
# Assay: yeast display, Sf9 membrane polyspecificity reagent, FACS + sequencing; frameworks hold sequencing errors
# In short: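 Synthetic nanobody libraries on Saccharomyces cerevisiae BJ5465 were galactose-induced for 36–48 hours, stained 1 hour at 4 °C with 10% biotinylated, detergent-solubilized Sf9 membrane reagent and enriched on streptavidin microbeads. FACS then separated cells into low and high (top ~1%) gates by anti-HA (expression) and streptavidin (reagent binding) fluorescence. Genes were colony-PCR amplified, MiSeq 2 × 250 sequenced and CDR-length filtered. A clone's polyreactivity label is that of its gate of origin.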
row,Sequence,polyreactivity (PSR sort gate)
1,QVQLVESGGGLVQAGGSLRLSCAASGFIIIGYVMGWYRQAPGNERELVAAITSSGSGTYYADSVKGRVTISRDNAKNTVYLQMNSLKPEDTAVYYSAAQVRYGTATYHVSSYHYTRYGYWGQATQVTVSS,low polyreactivity
2,QVQLVESGGGLVQAGGSLRLSCAASGFIIKYYAMGWYRQAPGKERELVAAISSGGRTYYADSVKGRFTISRDNAKNTVYLQMNSLKPEDTAVYYCAKTFRKSYDWGQGTQVTVSS,high polyreactivity
3,QVQLVESGGGLVQAGGSLRLSCAASGFIINKYTMGWYRQAPGKERELVAAITWSGGTTYYADSVKGRFTISRDNAKNTVYLQMNSLKPEDTALYYCAAYYYRGRVCAYDYWGQGTQVTVSS,high polyreactivity
4,QVQLVESGGGLVQAGGSLRLSCAASGFIIRYYTMGWSRQAPGKERELVAVITSGGTTYYADSVKGRFTISRDNAKNTVYLQMNSLKPEDTAVYYCAADYRPRLDGVGVDYWGQGTQVTVSS,low polyreactivity
5,QVQLVESGGGLVQAGGSLRLSCAASGFIISGNAMGWYRQAPGKERELVASISRSGGSTYYADSVKGRFTISRDNAKNTVYLQMNSLKPEDTAVYYCNARYYAIGQFNYWGQGTQVTVSS,low polyreactivity
6,QVQLVESGGGLVQAGGSLRLSCAASGFIISPYAMGWYRQAPGKERELVAAISWSGVSTYYADSVKGRFTISRDNAKNTVYLQMNSLKPEDTAVYYCATYRTVYYWGQGTQVTVSS,high polyreactivity
7,QVQLVESGGGLVQAGGSLRLSCAASGFILAYYAMGWYRQAPGKERELVAAISIGSSTDYADSVKGRFTISRDNAKNTVYLQMNSLKPEDTAVYYCAATYVYWTWGYDYWGQGTQVTVSS,low polyreactivity
8,QVQLVESGGGLVQAGGSLRLSCAASGFILAYYEMGWYRQAPGKERELVAAISIGSSTDYADSVKGRFTISRDNAKNTVYLQMNSLKPEDTAVYYCAARDYYYEYDYWGQGTQVTVSS,low polyreactivity
9,QVQLVESGGGLVQAGGSLRLSCAASGFILDRYAMGWYRQAPGKERELVASITSGGSTNYADSVKGRFTISRDNAKNTVYLQMNSLIPEDTAVYYCAAYPWRYWNHEYNYWGQGTQVTVSS,high polyreactivity
10,QVQLVESGGGLVQAGGSLRLSCAASGFILDYNAMGWYRQAPGKERELVAAITSGGSTNYADSVKGRFTISRDNAKNTVYLQMNSLKPEDTAVYYCNVRSVSPVHDDGSWGQGTQVTVSS,low polyreactivity
11,QVQLVESGGGLVQAGGSLRLSCAASGFILDYNAMGWYRQAPGKERELVATITGRGDRTYYADSVKGRFTISRDNAKNTVYLQMNSLKPEDTAVYYCAAGFDGSRHPGFDSWGQGTQVTVSS,low polyreactivity
12,QVQLVESGGGLVQAGGSLRLSCAASGFILDYYDMGWYRQAPGKERELVAGINYGGDSTYYADSVKGRFTISRDNAKNTVYLQMNSLKPEDTAVYYCAADLYFQYPEYDYWGQGTQVTVSS,low polyreactivity
13,QVQLVESGGGLVQAGGSLRLSCAASGFILERYAMGWYRQAPGKERELVAAISSVGNTNYADSVKGRFTISRDNAKNTVYFQMNSLKPEDTAVYYCAAEGAFPIYDYWGQGTQVTVSS,low polyreactivity
14,QVQLVESGGGLVQAGGSLRLSCAASGFILGSNVMGWYRQAPGKERELVAAISYSGGSTYYADSVKGRFTISRDNAKNTVYLQMNSLKPEDTAVYYCARRLTREYDYWGQGTQVTVSS,low polyreactivity
15,QVQLVESGGGLVQAGGSLRLSCAASGFILGYYAKGWSRQAPGKERELDAITSGDSTYYADSVKGRFTISRDTAKNTVYLQMNSLKPEDTAVYYCNAEASIERRYRGIIAVITRYDYWAQGTQVTVSS,high polyreactivity
16,QVQLVESGGGLVQAGGSLRLSCAASGFILLDYAMGWYRQAPGKERELVAAISWSGARTYYADSVKGRFTISRDNAKNTVYLQMNSLKPEDTAVYYCAAKGQRGYWWGFDYWGQGTQVTVSS,low polyreactivity
17,QVQLVESGGGLVQAGGSLRLSCAASGFILLDYAMRWYRQAPGKERELVAAISWSGARTYYADSVKGRFTISRDNAKNTVYLQMNSLKPEDTAVYYCATRYRWTPYDYWGQGTQVTVSS,low polyreactivity
18,QVQLVESGGGLVQAGGSLRLSCAASGFILPTYAMGWYRQAPGKEREFVAAIRTSTGATYYADSVKGRFTISRDIAKNTVYLQMTSLKPEDNAVYYFPADAPWSEWLWADIVGYEYWGQGTQVTVSS,low polyreactivity
19,QVQLVESGGGLVQAGGSLRLSCAASGFILRSYGMAWYRKAPGKERELVAAITRGGSTYYADSVKGRFTISRDNAKNTVYLQMNSLKAEDTAVYYCAARTRYYSQQFDYWGQGTQVTVSS,high polyreactivity
20,QVQLVESGGGLVQAGGSLRLSCAASGFILRWYAMGWYRQAPGKERELVAAISWSGGSTYYADSVKGRFTISRDNAKNTVYLQMNSLKPEDTAVYYCNAVNYRNKYDYWGQGTQVTVSS,high polyreactivity
21,QVQLVESGGGLVQAGGSLRLSCAASGFILRYYAMGWYRQAPGKERELVAAISSGGGTYYADSVKGRFTISRDNAKNTVYLQMNSLKPEDTAVYYCAADYWGLWHWLYTDDDGDYWGQGTQVTVSS,high polyreactivity
22,QVQLVESGGGLVQAGGSLRLSCAASGFILSGYAMGWYRQAPGKERELVAVISGGGRTYYADSVKGRFTISRDNAKNTVYLQMNSLKPEDTAVYYCARPRTRQGDYWGQGTQVTVSS,high polyreactivity
